Numbering of substitutions follows the chain as printed. Names may count otherwise.
B1: UbcH13 (UBE2N) (enzyme, human)
chain: MAGLPRRIIKETQRLLAEPVPGIKAEPDESNARYFHVVIAGPQDSPFEGGTFKLELFLPEEYPMAAPKVRFMTKIYHPNVDKLGRICLDILKDKWSPALQIRTVLLSIQALLSAPNPDDPLANDVAEQWKTNEAQAIETARAWTRLYAMNNI
notes: human UbcH13 (UBE2N), E2 ubiquitin-conjugating enzyme; also called UbcH13 E2 enzyme
B2: Arkadia (RNF111) LONG, residues 876-994 (Ark LONG, 119 aa) (domain or fragment, human, UniProt Q6ZNA4 876-994, looked up)
chain: FRGNFEELIHLEERLGNVNRGASQGTIERCTYPHKYKKVTTDWFSQRKLHCKQDGEEGTEEDTEEKCTICLSILEEGEDVRRLPCMHLFHQVCVDQWLITNKKCPICRVDIEAQLPSES
notes: human Arkadia (RNF111), residues 876-994, 119 aa; RING domain with the non-RING elements; also called wt Ark LONG; source: expressed and purified as described elsewhere [31]
B3: Arkadia (RNF111) RING, residues 927-994 (Ark RING, 68 aa) (domain or fragment, human, UniProt Q6ZNA4 927-994, looked up)
chain: KQDGEEGTEEDTEEKCTICLSILEEGEDVRRLPCMHLFHQVCVDQWLITNKKCPICRVDIEAQLPSES
notes: human Arkadia (RNF111), residues 927-994, 68 aa; also called wt Ark RING; source: expressed and purified as described elsewhere [31]
B4: Arkadia LONG R983A (domain or fragment)
chain: B2 chain with R108A
notes: human Arkadia (RNF111), residues 876-994, with R983A; also called Ark LONG R983A; source: site-directed mutagenesis; expressed and purified as the wild type
B5: Arkadia LONG R983K (domain or fragment)
chain: B2 chain with R108K
notes: human Arkadia (RNF111), residues 876-994, with R983K; also called Ark LONG R983K; source: site-directed mutagenesis; expressed and purified as the wild type

Columns and labels:
Experiment in all cases: ITC; 1-3 mM E2 in the syringe injected (2 uL, 15-19 injections) into 100-300 uM Arkadia polypeptide in the cell; 25 °C; 50 mM KH2PO4, 50 mM K2HPO4 pH 7; single-site model
Conditions in all cases: both partners purified
[1] = molecular target: B3
[2] = molecular target: B2
[3] = molecular target: T1, UbcH7 (UBE2L3) (human, UniProt P68036 1-154)
T1 construct: human UbcH7 (UBE2L3), E2 ubiquitin-conjugating enzyme; also called wt UbcH7; source: expressed and purified as described elsewhere [21,32]

[4] = molecular target: B1
[5] = molecular target: T2, UbcH5B (UBE2D2) (human, UniProt P62837 1-147)
T2 construct: His6-tag cleaved with thrombin; also called wt UbcH5B; wt E2

[6] = molecular target: T3, UbcH7 K96S (human, UniProt P68036 1-154, K96S)
T3 construct: human UbcH7 (UBE2L3) with K96S (KPA motif changed to SPA); also called mutant UbcH7; source: site-directed mutagenesis; expressed and purified as the wild type

## B1
[1]
  dH: 3.4 kcal/mol
  stoichiometry N: 1.1
[2]
  dH: -2.3 kcal/mol
  stoichiometry N: 0.9

## B2
[3]
  Kd: 4.3 ± 0.5 µM
[4]
  Kd: 51.9 ± 5 µM
[5]
  Kd: 2.7 ± 0.5 µM

## B3
[3]
  Kd: 27.3 ± 2 µM
[6]
  Kd: 10.2 ± 0.6 µM
[4]
  Kd: 264 ± 46 µM

## B4
[5]
  Kd: 8.4 ± 0.4 µM

## B5
[5]
  Kd: 5.5 ± 0.6 µM

From paper PMC9954413 (Cancers, 2023)
